B1: ADI-41314 (antibody, V domains shown)
VH: QVQLVQSGAEVKKPGSSVKVSCKAFGGIFSSYAISWVRQAPGQGLEWMGGIIPIFGTTKYAQKFQGRVTITADKSTSTVYMEVSSLRFEESAVYFCARAYCSGGTWYGGADYWGQGTLVTVSS
VL: QSVLTQPPSVSVSPGQTARITCSGDVLPKQYAYWYQQKPGQAPLLVMYKDTERPSGIPERFSGSSSVTAVTLTISGVQAEDEADYYCQSADSTQELFGGGTKLTVL
B2: ADI-41309 (antibody, V domains shown)
VH: EVQLLESGPGLVKPSQTLSLTCTVSGGSISSGDYYWSWVRQPPGKGLEWIGNIYHSGSTYYKPSLKSRVSISLDTSKNQFSLKLSSVTAADTAIYYCARDGGENYVWGTFRFLDVWGQGTTVTVSS
VL: DIRLTQSPGTLSLSPGERATLSCRASQSVSSSYLAWYQQKPGQAPRLLIYGVSSRATGIPDRFSGSGSGTDFTLTINRLEPEDFALYHCQQYGSSPHTFGQGTKVEIK
B3: ADI-41318 (antibody, V domains shown)
VH: EVQLLESGAEVKKPGSSVRVSCKAFGGTFSSYAFSWVRQAPGQGLEWMGGITPMFGTENYAPNFQGRVTITADKLTTTVYMELSRLRSEDSAVYYCAREGGRLGTTMGAFDMWGQGTMVTVSS
VL: DIRLTQSPSSLSASVGDRVTITCRASHGISSALAWYQQRPGRVPQVLIFHASTLESGVPSRFSGSGSGTDFTLTISSLQPEDFATYYCQQFNSYPYTFGQGTKVEIK
B4: ADI-41312 (antibody, V domains shown)
VH: QVQLQESGPGLVKPSGTLSLTCAVSGGSISSSNWWNWVRQPPGKGLEWIGEIYHSGRTNYNPSLKSRVSISIDKFKSQFSLNLNSVTAADTAVYYCARDLPGTPYDIVPGYYPGLRRHDAFDIWGQGTMVTVSS
VL: not shown
B5: ADI-41310 (antibody, V domains shown)
VH: QVQLVQSGVEVKKPGESLKISCRGSGYSFYNYWIAWVRQKPGKGLEYMGTIYLDDSDTIYSPSFQGEVTISADKSINTAYLQWNSLKASDTANYYCARQMDFYFDVWGRGTLVTVSS
VL: SYELTQPPSVSVSPGQTARITCSGDPLPRESAYWYQQKPGQAPVVVIFNDIERPLGIPGRFSGSRSGATATLTINGAQAEDEADYYCQSADSRKTFVFGAGTKLTVL
B6: ADI-41320 (antibody, V domains shown)
VH: QVQLVQSGVEVKKPGESLKISCRGFGYSAYNYWIAWVRQKPGKGLEYMGTIYLDDSDTIYSPSFQGEVTISADRSINTAYLQWNSLKASDTANYYCARQMDFYFDVWGRGTLVTVSS
VL: QSVLTQPPSVSVSPGQTARITCSGDPLPRESAYWYQQKPGQAPVVVIFNDIERPLGIPARFSGSRSGTTVTLTISGAQAEDEADYYCQSADSRKTFVFGPGTKLTVL
B7: ADI-41313 (antibody, V domains shown)
VH: EVQLVESGAEVKKPGASVKVSCKASGYTFNNYDISWVRQAPGQGLEWMGWISTYNGNTNYAQKFQGRATMTTDTSTTTAYMELRSLRSDDSAIYYCARVYCGGDCHNPFFLYFDLWGRGTLVTVSS
VL: SYVLTQPLSVSVALGQTARITCGGNNIGSKSVHWYQQKPGQAPLLVIYRDNNRPSGIPERFSGSTSGNTATLTISRAQAGDEADYSCQVWDNSDWVFGGGTKLTVL
B8: ADI-41308 (antibody, V domains shown)
VH: EVQLVESGPGLVKPSQTLSLTCAISGDSVSSNSAAWNWIRQSPSRGLERMGRTYYRSKWYDDYAVSVKSRIIINPDTSKNQFSLQLNSVTPEDTAVYYCARGISTFGGVIYALEIWGQGTMVTVSS
VL: SYVLTQPASVSGSPGQSITISCTGLTSDVGGYNFVSWYQQHPGKAPKLIIYDVSHRPSGVSNRFSGSESGNTASLTISGLQAEDEAHYYCSSYTRTSIVVFGGGTKLTVL
B9: ADI-41315 (antibody, V domains shown)
VH: EVQLLESGPGLVKPSETLSLTCAVSGGSISNYYWSWIRQPPGKGLEWIAYISYSGTTNYNPSLESRVTISVDTSKNQFSLKLNSVTAADTAVYYCARHEFLVLPDVWGQGTLVTVSS
VL: ETTLTQSPGTLSLSPGERATLSCRASQSVSSTFLAWYQQKPGQAPRLLIYAASSRATGIPDRFSGSGSGTDFTLIISRLEPEDFAVYYCQQYRSSPFSFGPGTKVEIK
B10: ADI-41317 (antibody, V domains shown)
VH: EVQLVESGGGLVQPGGSLRLSCEASRFKFSTFWMAWVRQAPGKGLEWVANIKQDGSETYYLDSVKGRFTISRDNAKNSLFLQMKSLRAEDTAVYYCAGLWWGDLENWFDPWGQGTLVTVSS
VL: QSVLTQPPSVSGAPGQRVTISCTGSSSNLGTGFDVHWYRQLPGTAPQLLIYGSTNRPSGVPDRFSGSKYGTSASLAITGLQAEDEADYYCQSYDSNLRAYVFGTVTKVTVL
B11: ADI-41306 (antibody, V domains shown)
VH: QVQLVESGPRLVKPSQTLSLTCTVSGGSIYRGDYDWNWIRQPPGKGLEWIGYISYTGNTHYNSSLKSRLSISADTSGTHFSLKLSSVTAADTAIYYCARDVGYGGNAAHYYYYAMDVWGQGTTVTVSS
VL: ETTLTQSPATLSLSPGERATLSCRASQSVGSSLAWYQQKVGQAPRLLIYDASSRVTGIPARFSGSGSGTDFTLTISSLEPGDFAVYYCQQRSNSLTFGGGTKVEIK
B12: ADI-41316 (antibody, V domains shown)
VH: QVQLVQSGGGVVQPGRSLRLSCAASGFTFNNYGMHWVRQAPGKGLEWVAVLSFDGINKYYADSARGRFTISRDNSKNTLYLQMNSLRAEDTALYYCAKDRQEYSSGWTHDACDIWGQGTMVTVSS
VL: EIVMTQSPATLSVSPGERATLSCRASQNVNNNLAWYQQNPGQAPRLLIFGASTRATGIPARFSGSGSGTEFTLTISSLQSEDFAVYYCQQYNNWPRTFGQGTKLEIK
B13: ADI-41319 (antibody, V domains shown)
VH: QVQLQESGPGLVKPSQTLSLTCTVSGGSISSGDYYWSWIRQPPGKGLEWIGYIFYSGTTYYNPSLKSRVTISLDTSQNQFSLKLSSVTAADTAVYYCARDGDEVDYVWGTRRYLDSWGRGTLVTVSS
VL: EIVLTQSPGTLSLSPGERATLSCRASQSVSSRYLAWYQQKPGQAPRLLIHGASSRATGIPDRFSGSGSGTDFTLTISRLEPEDFAVYYCLQYGSLPKTFGQGTKVEIK
B14: ADI-41307 (antibody, V domains shown)
VH: QVQLVESGGGLVKPGGSLRLSCAASGFPLSPYALNWVRQAPGKGLEWVSSITSSSAYIYYADSVKGRFTVSRDNPTNSLYLQMNSLRAEDTAVYYCARTIPQHYYDNNGDYYNYGMDVWGQGTTVTVSS
VL: DIVLTQSPATLSVSPGQRITLSCRASQTVRSNLAWYQQKPGQPPRLLIYGASTRATGVPARFTGSGSGTEFTLTITSLQSDDFAVYYCHQYNDRPLTFGPGTKVEIK
B15: ADI-41311 (antibody, V domains shown)
VH: QVTLKQSGPALVKPTQTLTLTCTFSGFSLSTKRMGVSWIRQPPGKALEWLARIDWDDDKYYSTSLRTRLTISKDTSKNQVVLTMTDMDPVDTATYYCARIQPYTSGGYYSYYFDYWGQGTLVTVSS
VL: DIQVTQSPSSLSASIGDRVTITCRASQTIASYLNWYQQKPGKAPKLLIYIASSLQSGVPSRFSGSGSGTDFTLTISTLQPEDFATYYCQQSYGTPWTFGQGTKVEIK

What follows are binders tested against RSV F on RSV-A2 virus (Respiratory syncytial virus (RSV-A2)) (assay: cell-based or functional assay).
In the case of B1, the “Neutralization IC50 (RSV subtype A)” value is reported as greater than 25 µg/mL.
In the case of B2, the “Neutralization IC50 (RSV subtype A)” value is reported as greater than 25 µg/mL.
For B3, the “Neutralization IC50 (RSV subtype A)” value was greater than 25 µg/mL.
In the case of B4, the “Neutralization IC50 (RSV subtype A)” value is reported as greater than 25 µg/mL.
In the case of B5, the “Neutralization IC50 (RSV subtype A)” value is reported as greater than 25 µg/mL.
For B6, the “Neutralization IC50 (RSV subtype A)” value was greater than 25 µg/mL.
B7 was tested, and the “Neutralization IC50 (RSV subtype A)” value was greater than 25 µg/mL.
With B8 the “Neutralization IC50 (RSV subtype A)” value was greater than 25 µg/mL.
B9 was tested, and the “Neutralization IC50 (RSV subtype A)” value was greater than 25 µg/mL.
With B10 the “Neutralization IC50 (RSV subtype A)” value was 4.66 µg/mL.
In the case of B11, the “Neutralization IC50 (RSV subtype A)” value is reported as 0.173 µg/mL.
For B12, the “Neutralization IC50 (RSV subtype A)” value was greater than 25 µg/mL.
For B13, the “Neutralization IC50 (RSV subtype A)” value was greater than 25 µg/mL.
B14 was tested, and the “Neutralization IC50 (RSV subtype A)” value was greater than 25 µg/mL.
For B15, the “Neutralization IC50 (RSV subtype A)” value was greater than 25 µg/mL.
